# Experimental data from PMC4052767 (Genes & Development, 2014).
# T1: Yeast Hat2p (full length) with N-terminal 6xHis tag (yeast (Saccharomyces cerevisiae), UniProt P39984 1-401)
# T1 sequence: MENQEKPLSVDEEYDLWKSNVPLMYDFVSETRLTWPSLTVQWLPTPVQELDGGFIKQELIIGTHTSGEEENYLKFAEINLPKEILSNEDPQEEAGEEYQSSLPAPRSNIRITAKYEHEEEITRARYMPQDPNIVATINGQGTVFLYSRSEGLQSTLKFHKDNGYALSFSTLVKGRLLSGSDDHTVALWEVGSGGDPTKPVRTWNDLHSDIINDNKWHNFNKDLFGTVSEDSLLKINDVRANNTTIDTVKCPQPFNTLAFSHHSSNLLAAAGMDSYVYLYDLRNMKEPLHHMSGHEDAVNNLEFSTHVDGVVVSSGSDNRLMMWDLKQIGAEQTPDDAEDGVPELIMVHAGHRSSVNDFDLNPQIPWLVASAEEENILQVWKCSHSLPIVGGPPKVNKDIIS
# Biological target: T1, Yeast Hat2p (full length) with …
# Assay: crystal structure
row,binding result,Binder
1,binds,"ARTKQTARKSTGGKA [H3 peptide (residues 1-15), unmodified]"

# Biological target: T1, Yeast Hat2p (full length) with …
# Assay: pull-down
row,binding result,Binder
1,binds,Yeast Hat1p (1-320) (enzyme) MSANDFKPETWTSSANEALRVSIVGENAVQFSPLFTYPIYGDSEKIYGYKDLIIHLAFDSVTFKPYVNVKYSAKLGDDNIVDVEKKLLSFLPKDDVIVRDEAKWVDCFAEERKTHNLSDVFEKVSEYSLNGEEFVVYKSSLVDDFARRMHRRVQIFSLLFIEAANYIDETDPSWQIYWLLNKKTKELIGFVTTYKYWHYLGAKSFDEDIDKKFRAKISQFLIFPPYQNKGHGSCLYEAIIQSWLEDKSITEITVEDPNEAFDDLRDRNDIQRLRKLGYDAVFQKHSDLSDEFLESSRKSLKLEERQFNRLVEMLLLLNNS
2,binds,Hat1p Y194A (enzyme) MSANDFKPETWTSSANEALRVSIVGENAVQFSPLFTYPIYGDSEKIYGYKDLIIHLAFDSVTFKPYVNVKYSAKLGDDNIVDVEKKLLSFLPKDDVIVRDEAKWVDCFAEERKTHNLSDVFEKVSEYSLNGEEFVVYKSSLVDDFARRMHRRVQIFSLLFIEAANYIDETDPSWQIYWLLNKKTKELIGFVTTAKYWHYLGAKSFDEDIDKKFRAKISQFLIFPPYQNKGHGSCLYEAIIQSWLEDKSITEITVEDPNEAFDDLRDRNDIQRLRKLGYDAVFQKHSDLSDEFLESSRKSLKLEERQFNRLVEMLLLLNNS
3,binds,Hat1p Y37A (enzyme) MSANDFKPETWTSSANEALRVSIVGENAVQFSPLFTAPIYGDSEKIYGYKDLIIHLAFDSVTFKPYVNVKYSAKLGDDNIVDVEKKLLSFLPKDDVIVRDEAKWVDCFAEERKTHNLSDVFEKVSEYSLNGEEFVVYKSSLVDDFARRMHRRVQIFSLLFIEAANYIDETDPSWQIYWLLNKKTKELIGFVTTYKYWHYLGAKSFDEDIDKKFRAKISQFLIFPPYQNKGHGSCLYEAIIQSWLEDKSITEITVEDPNEAFDDLRDRNDIQRLRKLGYDAVFQKHSDLSDEFLESSRKSLKLEERQFNRLVEMLLLLNNS
4,binds,Hat1p Y196A (enzyme) MSANDFKPETWTSSANEALRVSIVGENAVQFSPLFTYPIYGDSEKIYGYKDLIIHLAFDSVTFKPYVNVKYSAKLGDDNIVDVEKKLLSFLPKDDVIVRDEAKWVDCFAEERKTHNLSDVFEKVSEYSLNGEEFVVYKSSLVDDFARRMHRRVQIFSLLFIEAANYIDETDPSWQIYWLLNKKTKELIGFVTTYKAWHYLGAKSFDEDIDKKFRAKISQFLIFPPYQNKGHGSCLYEAIIQSWLEDKSITEITVEDPNEAFDDLRDRNDIQRLRKLGYDAVFQKHSDLSDEFLESSRKSLKLEERQFNRLVEMLLLLNNS
5,binds,Hat1p A202D (enzyme) MSANDFKPETWTSSANEALRVSIVGENAVQFSPLFTYPIYGDSEKIYGYKDLIIHLAFDSVTFKPYVNVKYSAKLGDDNIVDVEKKLLSFLPKDDVIVRDEAKWVDCFAEERKTHNLSDVFEKVSEYSLNGEEFVVYKSSLVDDFARRMHRRVQIFSLLFIEAANYIDETDPSWQIYWLLNKKTKELIGFVTTYKYWHYLGDKSFDEDIDKKFRAKISQFLIFPPYQNKGHGSCLYEAIIQSWLEDKSITEITVEDPNEAFDDLRDRNDIQRLRKLGYDAVFQKHSDLSDEFLESSRKSLKLEERQFNRLVEMLLLLNNS
6,binds,Hat1p A163Y (enzyme) MSANDFKPETWTSSANEALRVSIVGENAVQFSPLFTYPIYGDSEKIYGYKDLIIHLAFDSVTFKPYVNVKYSAKLGDDNIVDVEKKLLSFLPKDDVIVRDEAKWVDCFAEERKTHNLSDVFEKVSEYSLNGEEFVVYKSSLVDDFARRMHRRVQIFSLLFIEYANYIDETDPSWQIYWLLNKKTKELIGFVTTYKYWHYLGAKSFDEDIDKKFRAKISQFLIFPPYQNKGHGSCLYEAIIQSWLEDKSITEITVEDPNEAFDDLRDRNDIQRLRKLGYDAVFQKHSDLSDEFLESSRKSLKLEERQFNRLVEMLLLLNNS
